Measurements reported in IntAct's records for PubMed 18449195.

B1: SOSS complex subunit B1 (Homo sapiens), Q9BQ15 (parent)
chain: MTTETFVKDIKPGLKNLNLIFIVLETGRVTKTKDGHEVRTCKVADKTGSINISVWDDVGNLIQPGDIIRLTKGYASVFKGCLTLYTGRGGDLQKIGEFCMVYSEVPNFSEPNPEYSTQQAPNKAVQNDSNPSASQPTTGPSAASPASENQNGNGLSAPPGPGGGPHPPHTPSHPPSTRITRSQPNHTPAGPPGPSSNPVSNGKETRRSSKR

Variants of: B1
Conditions: with atm_human ATM

Variant	effect of a mutation on the interaction
T117A	disrupting interaction
